Measured values from patent US20240228562A1 (Pieris, published 2024).

Legend:
[1] = molecular target: T1, recombinant human CTGF-Fc protein (Creative Biomart) (human); test: SPR (Biacore)
T1 construct: Bought; also called human CTGF with a human IgG1 Fc Tag
In short: (§1)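 Lipocalin muteins injected at 25 °C over CTGF either Fc-tagged and captured by anti-human IgG-Fc (0.25-2.5 μg/mL in HBS-EP+, 180 s) or amine-coupled directly to a CM5 chip. Association 180 s, dissociation 900-3600 s, flow 30 μL/min.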

[2] = molecular target: T2, recombinant rat CTGF protein (R&D Systems) (rat, UniProt Q9R1E9 25-347); test: SPR (Biacore)
T2 construct: Bought; also called rCTGF
T2 sequence: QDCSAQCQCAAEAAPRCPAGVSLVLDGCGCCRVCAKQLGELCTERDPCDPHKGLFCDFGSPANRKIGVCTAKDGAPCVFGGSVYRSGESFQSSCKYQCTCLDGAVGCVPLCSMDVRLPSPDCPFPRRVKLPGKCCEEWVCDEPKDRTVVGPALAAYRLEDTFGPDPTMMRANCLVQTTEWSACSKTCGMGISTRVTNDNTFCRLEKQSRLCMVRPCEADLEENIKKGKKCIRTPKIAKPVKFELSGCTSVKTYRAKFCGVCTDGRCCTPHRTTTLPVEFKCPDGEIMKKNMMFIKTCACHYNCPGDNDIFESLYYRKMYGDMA
In short: as §1

huWISP-1 = molecular target: T3, huWISP-1 (human, UniProt O95388 23-367, limits assumed); test: ELISA, coated CCN protein
T3 construct: also called human WISP-1 (CCN4)
T3 sequence (looked up): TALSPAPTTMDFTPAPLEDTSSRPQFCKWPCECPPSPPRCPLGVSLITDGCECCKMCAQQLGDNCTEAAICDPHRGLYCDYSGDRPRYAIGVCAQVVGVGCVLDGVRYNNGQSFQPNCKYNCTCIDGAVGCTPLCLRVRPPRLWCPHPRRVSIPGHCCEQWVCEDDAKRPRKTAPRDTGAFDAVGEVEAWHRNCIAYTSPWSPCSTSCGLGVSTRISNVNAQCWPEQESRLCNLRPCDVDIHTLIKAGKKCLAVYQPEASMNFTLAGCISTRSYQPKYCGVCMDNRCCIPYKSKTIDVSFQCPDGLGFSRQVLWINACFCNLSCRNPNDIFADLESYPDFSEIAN
Protocol: (§2) Binding of muteins to closely related proteins of CTGF was tested by an ELISA assay. In detail, a 384-well plate suitable for fluorescence measurements (Greiner FLUOTRAC™ 600, black flat bottom, high-binding) was coated with 20 μl of human CTGF or the other members of the CCN protein family at a concentration of 1 μg/ml in PBS over night at 4° C. After washing with PBS with 0.05% Tween 20, wells were blocked with 100 μl blocking buffer containing 0.1% Tween 20 and 2% BSA (PBS-T/BSA) for 1 h at room temperature. 20 μl of serially diluted muteins starting at 1000 nM were incubated in PBS-T/BSA for 1 h at room temperature (RT).
(§3) The residual supernatants were discarded and 20 μl HRP-labeled anti-NGAL or anti-Strep-Tag antibody was added at a predetermined optimal concentration in PBS-T/BSA and incubated for 1 h at RT. After washing, 20 μl fluorogenic HRP substrate (QuantaBlu, Thermo) was added to each well, and the reaction was allowed to proceed for 2 to 60 minutes. The fluorescence intensity of every well on the plate was read using a fluorescence microplate reader (Tecan). When the signal for human CTGF approached saturation, the cross reactivity to the other proteins was assessed.

huCYR61 = molecular target: T4, huCYR61 (human, UniProt O00622 25-381, limits assumed); test: ELISA, coated CCN protein
T4 construct: also called human CYR61 (CCN1)
T4 sequence (looked up): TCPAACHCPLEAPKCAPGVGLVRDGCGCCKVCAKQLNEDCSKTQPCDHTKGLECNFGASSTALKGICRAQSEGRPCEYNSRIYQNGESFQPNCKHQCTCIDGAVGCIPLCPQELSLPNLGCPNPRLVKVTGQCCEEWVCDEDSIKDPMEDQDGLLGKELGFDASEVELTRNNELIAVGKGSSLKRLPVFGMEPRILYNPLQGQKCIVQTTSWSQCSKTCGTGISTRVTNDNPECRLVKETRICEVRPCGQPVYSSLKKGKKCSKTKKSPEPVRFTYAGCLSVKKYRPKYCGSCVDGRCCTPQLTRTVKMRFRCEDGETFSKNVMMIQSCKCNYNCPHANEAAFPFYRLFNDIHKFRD
Protocol: as §2, §3

huNOV = molecular target: T5, huNOV (human, UniProt P48745 32-357, limits assumed); test: ELISA, coated CCN protein
T5 construct: also called human NOV (CCN3)
T5 sequence (looked up): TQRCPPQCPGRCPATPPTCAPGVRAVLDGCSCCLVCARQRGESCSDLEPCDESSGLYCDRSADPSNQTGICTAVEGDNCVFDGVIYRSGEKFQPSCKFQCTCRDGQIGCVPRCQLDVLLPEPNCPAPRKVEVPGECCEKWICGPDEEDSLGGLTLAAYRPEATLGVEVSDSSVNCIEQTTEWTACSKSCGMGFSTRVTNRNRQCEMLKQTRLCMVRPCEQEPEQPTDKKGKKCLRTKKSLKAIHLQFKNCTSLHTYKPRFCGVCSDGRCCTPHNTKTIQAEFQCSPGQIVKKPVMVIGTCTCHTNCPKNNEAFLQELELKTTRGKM
Protocol: as §2, §3

T1 sequence (chain, as listed by the source limits assumed): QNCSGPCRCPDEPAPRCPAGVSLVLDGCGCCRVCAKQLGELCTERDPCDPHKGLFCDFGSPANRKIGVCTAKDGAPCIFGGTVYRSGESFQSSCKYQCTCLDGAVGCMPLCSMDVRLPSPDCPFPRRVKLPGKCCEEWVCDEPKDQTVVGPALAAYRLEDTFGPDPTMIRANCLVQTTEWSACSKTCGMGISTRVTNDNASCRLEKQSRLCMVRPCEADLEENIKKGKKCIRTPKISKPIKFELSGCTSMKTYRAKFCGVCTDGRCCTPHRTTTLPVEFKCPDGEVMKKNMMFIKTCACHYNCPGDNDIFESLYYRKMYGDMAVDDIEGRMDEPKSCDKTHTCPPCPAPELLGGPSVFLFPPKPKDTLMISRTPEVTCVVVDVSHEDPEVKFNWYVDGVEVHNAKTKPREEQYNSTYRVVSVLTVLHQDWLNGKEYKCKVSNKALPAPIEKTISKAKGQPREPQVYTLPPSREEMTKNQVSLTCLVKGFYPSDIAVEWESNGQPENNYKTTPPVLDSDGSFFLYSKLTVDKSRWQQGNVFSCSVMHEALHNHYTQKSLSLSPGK

B1: lipocalin mutein of SEQ ID NO: 25 (designed binder)
chain: QDSTSDLIPAPPLSKVPLQQNFQDNQFHGKWYVVGMAGNFRLREDKDPSKMGATIYELKEDKSYNVTQVQFDDKKCLYVIETFVPGSQPGEFTLGAIKSFPGFTSQLVRVVSTNYNQHAMVFFKKVYQNREVFWITLYGRTKELTSELKENFIRFSKSLGLPENHIVFPVPIDQCIDGSAWSHPQFEK
notes: Parent hNGAL mutein; also called hNGAL mutein
B1 gave a Kd [1] of 9.27 nM, a koff [1] of 0.000248 s⁻¹ and a kon [1] of 26800 M⁻¹ s⁻¹. It also gave a Kd [2] of 27.7 nM, a koff [2] of 0.00129 s⁻¹ and a kon [2] of 46500 M⁻¹ s⁻¹. B1: no binding (tested: dilutions starting at 1000 nM) (huWISP-1); no binding (tested: dilutions starting at 1000 nM) (huCYR61); no binding (tested: dilutions starting at 1000 nM) (huNOV).

B2: lipocalin mutein of SEQ ID NO: 15 (designed binder)
chain: QDSTSDLIPAPPLSKVPLQQNFQDNQFQGKWYVVGLAGNAILREDKQPAKMFATIYELKEDKSYDVTSVRFEAKSCKYTIKTFVPGSQPGEFTAGYIKSAPGQTSTLVRVVSTNYNQHAMVFFKHVTQNREIFVITLYGRTKELTSELKENFIRFSKSLGLPENHIVFPVPIDQCIDG
notes: also called hNGAL mutein; not shown: C-terminal His-tag
In the case of B2, the Kd [1] is reported as 0.547 nM, the koff [1] is reported as 4.47e-05 s⁻¹ and the kon [1] is reported as 81700 M⁻¹ s⁻¹. The Kd [2] was 0.95 nM, the koff [2] was 0.000114 s⁻¹ and the kon [2] was 120000 M⁻¹ s⁻¹. B2: no binding (tested: dilutions starting at 1000 nM) (huWISP-1); no binding (tested: dilutions starting at 1000 nM) (huCYR61); no binding (tested: dilutions starting at 1000 nM) (huNOV).

B3: lipocalin mutein of SEQ ID NO: 9 (designed binder)
chain: QDSTSDLIPAPPLSKVPLQQNFQDNQFHGKWYVVGLAGNKILRIDKQPAKMFATIYELKEDKSYDVTSVRFEARSCSYTIKTFVPGSQPGEFTAGNIKSAPGQTSTLVRVVSTNYNQHAMVFFKHVSQNRETFVITLYGRTKELTSELKENFIRFSKSLGLPENHIVFPVPIDQCIDGSAWSHPQFEK
notes: as for B1
In the case of B3, the Kd [1] is reported as 12.8 nM, the koff [1] is reported as 0.00102 s⁻¹ and the kon [1] is reported as 79800 M⁻¹ s⁻¹. It also gave a Kd [2] of 16 nM, a koff [2] of 0.00169 s⁻¹ and a kon [2] of 105000 M⁻¹ s⁻¹. B3: no binding (tested: dilutions starting at 1000 nM) (huWISP-1); no binding (tested: dilutions starting at 1000 nM) (huCYR61); no binding (tested: dilutions starting at 1000 nM) (huNOV).

B4: lipocalin mutein of SEQ ID NO: 29 (designed binder)
chain: QDSTSDLIPAPPLSKVPLQQNFQDNQFHGKWYVVGWAGNIKLREDKDPFKMSATIYELKEDKSYNVTEVVFEQKKCHYIIKTFVPGSQPGEFTLGDIKSPPGETSSLVRVVSTNYNQHAMVFFKKVFQNREFFWITLYGRTKELTSELKENFIRFSKSLGLPENHIVFPVPIDQCIDGSAWSHPQFEK
notes: as for B1
B4 was tested, and the Kd [1] was 11.2 nM, the koff [1] was 0.00112 s⁻¹ and the kon [1] was 100000 M⁻¹ s⁻¹. For the same binder, the Kd [2] was 18 nM, the koff [2] was 0.00317 s⁻¹ and the kon [2] was 176000 M⁻¹ s⁻¹. B4: no binding (tested: dilutions starting at 1000 nM) (huWISP-1); no binding (tested: dilutions starting at 1000 nM) (huCYR61); no binding (tested: dilutions starting at 1000 nM) (huNOV).

B5: lipocalin mutein of SEQ ID NO: 7 (designed binder)
chain: QDSTSDLIPAPPLSKVPLQQNFQDNQFHGKWYVVGLAGNYGLRTDKRPSKMFATIYELKEDKSYDVTSVRFEQERCHYTIRTFVPGSQPGEFTTGSIKSRPGQTSSLVRVVSTNYNQHAMVFFKSVIQNREYFAITLYGRTKELTSELKENFIRFSKSLGLPENHIVFPVPIDQCIDGSAWSHPQFEK
notes: as for B1
For B5, the Kd [1] was 60.2 nM, the koff [1] was 0.00587 s⁻¹ and the kon [1] was 97600 M⁻¹ s⁻¹. It also gave a Kd [2] of 62.8 nM, a koff [2] of 0.00754 s⁻¹ and a kon [2] of 120000 M⁻¹ s⁻¹. B5: no binding (tested: dilutions starting at 1000 nM) (huWISP-1); no binding (tested: dilutions starting at 1000 nM) (huCYR61); no binding (tested: dilutions starting at 1000 nM) (huNOV).

B6: lipocalin mutein of SEQ ID NO: 3 (designed binder)
chain: QDSTSDLIPAPPLSKVPLQQNFQDNQFHGKWYVVGRAGNNRLREDKDPPKMWATIYELKEDKSYNVTHVHFMTKKCRYIIDTFVPGSQPGEFTLGAIKSGPGMTSPLVRIVSTNYNQHAMVFFKWVNQNREWFTITLYGRTKELTSELKENFIRFSKSLGLPENHIVFPVPIDQCIDGSAWSHPQFEK
notes: as for B1
B6 was tested, and the Kd [1] was 37.5 nM, the koff [1] was 0.00749 s⁻¹ and the kon [1] was 200000 M⁻¹ s⁻¹. The Kd [2] was 39.3 nM, the koff [2] was 0.0117 s⁻¹ and the kon [2] was 297000 M⁻¹ s⁻¹. B6: no binding (tested: dilutions starting at 1000 nM) (huWISP-1); no binding (tested: dilutions starting at 1000 nM) (huCYR61); no binding (tested: dilutions starting at 1000 nM) (huNOV).
